The nanobody polyreactivity screen of Harvey et al. (2022)

Assay: yeast display, Sf9 membrane polyspecificity reagent, FACS + sequencing; frameworks hold sequencing errors
Procedure, shortened: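 A synthetic nanobody library was expressed on Saccharomyces cerevisiae BJ5465 by galactose induction for 36–48 hours. The library was stained for 1 hour at 4 °C with 10% biotinylated, detergent-solubilized Sf9 membrane reagent and enriched with streptavidin microbeads before FACS. Low and high (top ~1%) gates were set on anti-HA fluorescence for expression and streptavidin fluorescence for reagent binding, and each polyreactivity label reflects the gate of origin.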

Sequence	polyreactivity (PSR sort gate)
QVQLVESGGGLVQAGCRLRLSCAASGITFYSYAMGWYRQAPGKERELVAAITLTGGTTYYADSVKGRFTISRDNAKNTVYLQMNSLKPEDTAVSYCAAQYWWWSRFEYDSWGQGTQVTVSS	low polyreactivity
QVQLVESGGGLVQAGGSLRLSCAASGFIFDHNAMGWYRQAPGKERELVAAISGSGGSTYYADSVKGRFTISRDNAKNTVYLQMNSLKPEDTAVYYCNALKRTRLVRYYYWGQGTQVNVSS	high polyreactivity
QVQLVESGGGLVQAGGSLRLSCAASGRIFVVNAMGWYRQAPGKERELVAAITRRGGSTYADSVKGRFTISRDNAKNTVYLQMNSLKPEDTAVYYCNAESYSGIFSYKYDYWGQGTQVTVSS	high polyreactivity
QVHLVESVGGLVQAGGSLRLSCAASGRIFGYYAMGWYRQAPGKERELVAAISTNGGTTYYADSVKGRFTISRDNAKNTVYLQMNSLKPEDTAVYYCAATYTVPGHARYDYWGQGTQVTVSS	low polyreactivity
QDLLVDSGGGLVQAGGSLRVSCAASGYTRFYAMGWYRQAPGKERELVAAISSSGGTTYYADSVKGRFTISRDNAKNNVYLQMNSLKPEDTAVYYCAKFLSYSRTLYDYWGQGTQVTVSS	high polyreactivity
QVQLVESGGGLVQAGGSLRLSCAASGFTFYTYAMGWYRQAPGKEMELVADISSGGSTNYADSVKGRFTISRDNAKNTVYLQMNSLKPEDTAVYYCSADYYFLDWYDYWGQGTQVTVSS	low polyreactivity
QLQLVESGGGLDQAGGSLRLSCAASGFTFVSYAMGWYRQAPGKERELVAVISYRAGSTYYADSVKGRFTISRDNAKNTVYLQMYSLKPEDTAVYYCATDRYSRRNDYWGQGTQVTVSS	high polyreactivity
QVQLVESGGGLVQAGGSLRLSCAASGSIFWLYAMGWYRQAPGKERELVAAISWSGTSTNYADSVKGRFTISRDNAKNTVYLQMNSLKPEDTAVYYCAAKWHVRGRGARYRYDYDYWGQGTQVTVSS	low polyreactivity
QVQLVESGGGLVQAGGSLRLSCAASGSIFDSYDRGWYREAPGKERELVAAITSGGSTNYADSVKGRFTISRDNAKNTVYLQMNSLKPEDTAVYYCAAYYWYPVYYGYDYGGQGTQVTVSS	low polyreactivity
QVQHVESGGGLDQGRGSLSLSCAASARNLSSNVLGRYRQAPGNETEFVASITYSGSSTYYADSVKGRFTISRDYAKNTFYLQMNSLKPEDTAVYYCATRYGYSDGDYWGQGTQVTVSS	low polyreactivity
QVQLVESGGVLVQAGGSLRLSCAASGSTFGRYTMGWYRQAPGKERELVAVITKSGGSTYYADSVKGRFTISRDNAKNTVYLQMNSLKPEDTAVYYCAAGVAWRFYSWGQGTQVTVSS	high polyreactivity
QVQLVESGGGLVQAGGSLRLSCAASGSTFYYYAMGWYRQAPGKERELVAAINYNGGSTHYADSVKGRFTISRDNAKNTVYFQMNSLKPEDTAVYYCAAKYRLSYTHGYWGQGTQVTVSS	low polyreactivity
QVQLVESGGGLVQAGGSLRLSCAASGFTFVSNAMGWYRQAPGKERELVAAISGSGGSTYYADSVKGRFTISRDNAKNTVYLQMNSLKPEDTAVYYCAKGSRSYVRKMDYWGQGTQVTVSS	low polyreactivity
QVQLVESGGGLVQAGGSLRLSCAASGSIFYRNAMGWYRQAPGKERELVAGITWRGGRTYYADSVKGRFTISRDNAKNTVYLQMNSLKPEDTAVYYCAATYYWYGHPSRRYDYWGQGTQVTVSS	high polyreactivity
QVQLVESGGGLVQAGGSLRLSCAASGSIFEQYTMGWYRQAPGKERELVAAISRRYGRTYYADSVKGRFTISRDNAKNTVYLQMNSLKPEETAVYYCNTVYYGNFYSTRYDYWGHGTQVTVSS	high polyreactivity
QVQLVESGGGLVQAGGSLRLSCAASGFTFETYAMGWNRQAPGKERELVASISRSGGRTYYADSVKGRFTISRDNAKNTVYLQMNSLKPDDTAVYYCAAGYYVRYGRRPTGYGGYDYWGQGTQVTVSS	high polyreactivity
QVQLVESGGGLVQAGGSLRLSCAASGSTFGLYAMGWYRQAPGKEREFVAAISWRTGSTYYADSVKGRFTISRDNAKNTVFLQMYSLKPEDTAVYYCAARAYGTIIHGYWGQGTHVTVSS	high polyreactivity
QVQLVESGGGLVQAGGSLRLRCAASGIIFSPYDMGWSIQAPGKVRELVAAITTGDSTNYADSVKGRFTMSRDNAKTTVYFPMNSLKPEDTAVDYCNATDTYVFFLYLEFDYWGQGTQVTVSS	low polyreactivity
QVQLVESVGGLVQAGGILRLSCAASGYTFGGSAKGWYRPAPGKERELVAAITRRGGSTYYADSVKGRFTISRDNAKNTVYLQMNSLKPEDTAVYYCAKRSGSYSYPAVGGWGLGYWGHGTQVTVSS	high polyreactivity
QVQLVESGGGLVQAGGSLRLSCAASGRIFSGYAMGWYRQAPGKERELVAAITSRSGSTYYADSVKGRFTISRDNAKNTVYLQMNSLKPEDTAVYYCAAEYVRFYWYTSAYWGQGTQVTVSS	low polyreactivity
QVQLVESGGGLVQAGGSLRLSCAASGIIFVRYTMGWYRQAPGKERELVAAISSSGGSTYYADSVKGRFTISRDNAKNTVYLQMNSLKPEDTAVYYCNAEIRDNNVGYYTDYDYWGQGTQVTVSS	high polyreactivity
QVQLVESGGGLVQAGGSLRLSCAASGFTFYYNAMGWYRQAPGKERELVASISSNGTSTYYADSVKGRFTISRDNAMNTVYLQMNSLKPEDTAVYYCNVDIFDPRTYDYWGQGTQVTVSS	low polyreactivity

Sequence	polyreactivity (PSR sort gate)
QVQLVESGGGLVQAGGSLRLSCAASGRIFPTNAMGWYTQAHGKEREFVSAITWRGGSTYYADSVKGRFTISRDNAKNTVYLQMNSLKPEDTAVYYCAATGHIVFFRADDYGYWGQGTQVTVSS	low polyreactivity
QVQLVESGGGLVQAGGSLRLSCAASGRIFPGNPMGWYRQATGQERELVAGISFSGGRTYYADSVKGRFTISRDNAKNTVYLQIISLKPEDTAVYYCATKYQQHCWSYDYWGQGTQVTVSS	low polyreactivity
QVQLVESGGGLVQAGGSLRLSCAASGSIFPSNVMGWYRQAPGKERELVAAISTTGSTYYADSVKGRFTISRDNAKNTVYLQMNSLKTEDTAVYDCAAEYWSYAHGGQLYGYDYWGQGTQVTVSS	low polyreactivity
QVQLVESGGGLVQAGGSLRLSCAASGSTFVINAMGWYRQAPGKERELVAAIDFSGGSTYYADSVKGRFTISRDNAKNTVYLQMNSLKPEDTAVYYCAAVLSSYGYGGYTWYDYEYWGKGTQVTVSS	high polyreactivity
QVQLVESGGGLVQAGGSLRLSCAASGRILKRKAMGLYRQAPGKERELVAAISWSTGTTYYADSVKGRLTISVDNAKNTVYLQMNSLKPEDTAVYYCAKKIVSGRRVDRNDYWGQGTQVTVSS	low polyreactivity
QVQLVESGGGLVQAGGSLRLSCAASGSIFKWYTMGWYRQAPGKERELVAAITWGGGSTYYADSVKGRFTISRDNAKNTVYLQMNSLKPEDTAVYYCNAEYVVADYGYYTIEFDYWGQGTQVTVSS	low polyreactivity
QVQLVESGGGVVQAGVTLRLSCAASGRIFHYNAMGWYRQAPGKEREMVAAFTWIGGSTYADSVKGRFTISRDNSKNSVYLLMNSLKPEDTAVYYFNARYIYRFDFWGQGTQVTVSS	low polyreactivity
QVQLVESGGGLVQAGGSLRLSCAASGSILPDYAMGWYRQAPGKERELVASITNSGDSTYYADSVKGRFTISRDNAKNPVYLQMNSLKPEDTAVYYCNADSVRYDYSANDYEYWGQGSQVTVSS	high polyreactivity
QVQLVESGGGLVQAGGSLRLSCAASGSIFAYYAMGWYRQAPGKEMELVAAITRGGTTYYADSVKGRFTISRDNAKNTVYLQMNSLKPEDTAVYYCAVYYYSGTAGYRYGYWGQATQVTVSS	high polyreactivity
QVQLVESGGGLVQAGGSLRLSCAASGRIFYSNAMGWYRQAPGKERELVATITYYADSVKGRFTISRDNAKNTVYLQMNSLKPEDTSVYYCAAVYLYYSRSDLYDYWGQGTQVTVSS	low polyreactivity
QVHLVESGGGLDQAGGSLRLRCAASGRIFRHYAMGWYRQAPGTERELVAAYRWSCGSTYYADSEKGRFTISRDNAKNTVYLQMNSLKPEDNAVYYCATRDAVGHRPSGPYQLYDYWGQGTQVTVSS	low polyreactivity
QVQLVESGGGIVQAGGSLRLSCAASGRTFYYNAMGWYRQAPGKERELVAAISSSGGSTYYADSVKGRFTISRDNAKNTVYLQMNSLKPEDTAGYYCAASSPGARGGGGYWGQGTQVTVSS	high polyreactivity
QVQLVESGGGLVQAGGSLRLSCAASGRTIYYYAMGLYRQAPGKERELVAAISSSGSTTYYADSVKGRFTISRDNAKNTVYLQMNSLKPEDTAVYYCAASYVYRVDDDYWGLGTQVTVSS	low polyreactivity
EVQLVESGGGVDQAVGSLRLSCAASGSIFLFYARGWYRQARGKEMELVARISFRSTSTYYADSVKGRFTISLDNAKYTVSLQMNSLKPEDTAVYYCATRTWYGYLYDYWGQGTQVTVSS	high polyreactivity
QVQLVESGGGLVQAGGSLRLSCAASGSILAYYGMGWYRQAPGKEREFVAAISNRGGSTYYADSVKGRFTISRDNAKNTVYLQLNSLKPEDTAVYYCARELYRRVWHHWAYWAAYDYWGQGTQVTVSS	low polyreactivity
QVQLVESGGGLVQAGGSLRLTCAASGRTFKFNAMGWDRQAPGKERELVAGITWTGSTTSYADSVKGRFTISRDNAKNTVYLQMNSLKPEDTSVYYCAADKIRFWYHGFYYRGQGTQVTVSS	low polyreactivity
QVQLVESGGGLVQAGGSLRLSCAASGNTFTRNTMGWYRPAPGKERELVASISLSGASTYYADSVKGRFTISRDNAKNTVYLQMNSLKPEDTAVYYCAAEYFNYKTDVDYWGQGTQVTVSS	high polyreactivity
QVQLVESGGGLVQAGGSLRLSCAASGSIFAANAMGWYRQAPGKERELVAAISWSGGSTYADSVKGRFTISRDNAKNTVYLQMNSLKPEDTAVYYCNAYVYVGTGRGYDTLDYWGQGTQVTVSS	low polyreactivity
QVQLVESGGGLDQAGGSLRLSCAASGRIFYPYTMGWYRQAPGKERELVAAISSTGRTNYADSVKGRFTISRDNAKNTVYLQMNSLKPEDTAVYYCAKRYRKYSLGPPGNDYWGQGTQVTVSS	high polyreactivity
QVQLVESGGGLVQAGGSLRLSCAASGLTFWTNTMGWSRQAPGKERELVATISSGGGTYYADSVKGRFTISRDNAKNTVYLQMNSLKPEDTAVYYCAAKRKRYFVGYYYWGQGTQVTVSS	low polyreactivity
QVQLVESGGGLVQAGGRLRLSCAASGFIFKGYAKGWYRQAPGKERELVAAISYSGGNTYYADSVKGRFTISRDNAKNTVYLQMNSLKPEDTAVYYCDVRKRKVLGMYYWGQGTQVTVSS	high polyreactivity
